# B1: Phage-288 (peptide)
# peptide: YCEGHRAEYMEKCL
# B2: Phage-776 (peptide)
# peptide: YCAGHAAEYMWKCL
# B3: Phage-755 (peptide)
# peptide: YCEGHAPQYMSKCL
# B4: Phage-293 (peptide)
# peptide: YCDGHSAEYLAKCL
# B5: Phage-775 (peptide)
# peptide: YCSGHSWAYIGKCL
# B6: Phage-779 (peptide)
# peptide: YCDGHSKEYMSKCL
# B7: Phage-819 (peptide)
# peptide: YCDGHSGEYMSKCL
# B8: Phage-799 (peptide)
# peptide: YCDGHIKEYMSKCL
# B9: Phage-786 (peptide)
# peptide: YCDGHEERYMAKCL
# B10: Phage-778 (peptide)
# peptide: YCEGHVPEYLVKCL
# B11: Phage-772 (peptide)
# peptide: YCEGHSAIYIAKCM
# B12: Phage-264 (peptide)
# peptide: YCAGHLPMYMHKCL
# B13: Phage-297 (peptide)
# peptide: YCAGHSPEFMEKCL
# B14: Phage-239 (peptide)
# peptide: YCEGHAIQYMSKCL
# B15: Phage-756 (peptide)
# peptide: YCDGHDARYMTKCL
# B16: Phage-789 (peptide)
# peptide: YCAGHAEIYMQKCL
# B17: Phage-236 (peptide)
# peptide: YCDGHLPEYQMKCL
# B18: Phage-774 (peptide)
# peptide: YCDGHTGMYISKCL
# B19: Phage-754 (peptide)
# peptide: YCDGHAPEFIRKCL
# B20: Phage-262 (peptide)
# peptide: YCDGHLPQYMSKCL
# B21: Phage-266 (peptide)
# peptide: YCDGHMPQYMSKCL
# B22: Phage-788 (peptide)
# peptide: YCDGHIPQYVEKCL
# B23: Phage-780 (peptide)
# peptide: YCDGHLPEYMLKCL
# B24: Phage-880 (peptide)
# peptide: YCDGHLPEYMEKCL
# B25: Phage-757 (peptide)
# peptide: YCEGHSVEYILKCL
# B26: Phage-242 (peptide)
# peptide: YCDGHFREYMQKCL
# B27: Phage-238 (peptide)
# peptide: YCDGHLIEYMEKCL
# B28: Phage-298 (peptide)
# peptide: YCDGHLNEYMEKCL
# B29: Phage-792 (peptide)
# peptide: YCEGHTQAYLAKCL
# B30: Phage-752 (peptide)
# peptide: YCDGHSSAYIDKCL
# B31: Phage-291 (peptide)
# peptide: YCMGHQPEYMQKCL
# B32: Phage-781 (peptide)
# peptide: YCAGHLDVYMSKCL
# B33: Phage-750 (peptide)
# peptide: YCEGHSSEYLGKCL
# B34: Phage-787 (peptide)
# peptide: YCSGHVPEYMEKCL
# B35: Phage-261 (peptide)
# peptide: YCDGHSDQYMWKCL
# B36: Phage-751 (peptide)
# peptide: YCDGHLPRYMEKCM
# B37: Phage-773 (peptide)
# peptide: YCFGHFPEYMAKCL
# B38: Phage-785 (peptide)
# peptide: YCEGHDIRYMMKCL
# B39: Phage-270 (peptide)
# peptide: YCEGHLPMYFLKCM
# B40: Phage-263 (peptide)
# peptide: YCEGHAAEYMMKCL
# B41: Phage-259 (peptide)
# peptide: YCEGHLSQYMQKCL
# B42: Phage-790 (peptide)
# peptide: YCEGHAHEYMEKCV
# B43: Phage-272 (peptide)
# peptide: YCEGHLAEYMDKCL
# B44: Phage-784 (peptide)
# peptide: YCAGHTPEYLDKCL
# B45: Phage-271 (peptide)
# peptide: YCDGHLPIYMTQCL
# B46: Phage-777 (peptide)
# peptide: YCQGHFPQYMAKCL
# B47: Phage-881 (peptide)
# peptide: YCAGHASEYLQKCL
# B48: Phage-753 (peptide)
# peptide: YCEGHLPSYLAKCL
# B49: Phage-240 (peptide)
# peptide: YCEGHAPQHMDKCL
# B50: Phage-269 (peptide)
# peptide: YCDGHLWEYMDKCL
# B51: Phage-758 (peptide)
# peptide: YCEGHSSAYMRKCL
# B52: Phage-791 (peptide)
# peptide: YCDGHHAEYMWKCL
# Legend:
# [1] = target: T1, Anti-CD28 Fab (SEQ ID NOs: 202, 203); experiment: phage ELISA on captured Fab, wells pre-incubated with CD28 antigen (competitor: CD28);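 also: bound clonal phage detected with an HRP-linked anti-M13 antibody, compared against wells that received blocking buffer alone without CD28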
# T1 construct: biotinylated and captured on neutravidin coated plates in the phage ELISA
# T1 sequence (VH, as listed by the source, chain 1 of 2): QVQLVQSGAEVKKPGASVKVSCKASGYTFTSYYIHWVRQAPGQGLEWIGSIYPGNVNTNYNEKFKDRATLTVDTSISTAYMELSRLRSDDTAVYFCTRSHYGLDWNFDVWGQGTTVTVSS
# T1 sequence (VL, as listed by the source, chain 2 of 2): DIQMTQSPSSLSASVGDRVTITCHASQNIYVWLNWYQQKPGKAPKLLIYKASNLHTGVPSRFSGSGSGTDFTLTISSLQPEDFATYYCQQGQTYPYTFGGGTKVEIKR
# Description: (§1) Clonal phage were harvested as crude supernatants and screened via standard ELISAs. […] Prior to the addition of clonal phage, wells were incubated with blocking buffer and CD28 antigen or blocking buffer alone. Without washing or aspirating, clonal phage supernatants were then added to the wells and incubated for a short time. Wells were then washed followed by detection of bound phage using a horse radish conjugated anti-M13 antibody.
# [2] = target: T1, Anti-CD28 Fab (SEQ ID NOs: 202, 203); experiment: phage ELISA on captured biotinylated Fab;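 also: wells preblocked with or without CD28 antigen, then clonal phage supernatant added briefly, washed, and bound phage read out by ELISA using HRP-linked anti-M13 antibody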
# Description: as §1
# [3] = target: Anti-CD28 Fab (SEQ ID NOs: 202, 203); experiment: phage binding ELISA on captured Fab, competitor CD28 antigen;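 also: clonal phage supernatant binding in wells preincubated with CD28 antigen in blocking buffer, detected by HRP-conjugated anti-M13 antibody ELISA, compared with blocking buffer alone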
# Target sequence in this assay (VH, as listed by the source, chain 1 of 2): as the sequence (VH, as listed by the source, chain 1 of 2) above
# Target sequence in this assay (VL, as listed by the source, chain 2 of 2): as the sequence (VL, as listed by the source, chain 2 of 2) above
# Description: as §1
# [4] = target: Anti-CD28 Fab (SEQ ID NOs: 202, 203); experiment: phage binding ELISA on captured Fab;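 also: clonal phage supernatants added briefly to wells pre-incubated with CD28 antigen or with blocking buffer only, then washed, bound phage read by ELISA using HRP-coupled anti-M13 antibody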
# Target sequence in this assay (VH, as listed by the source, chain 1 of 2): as the sequence (VH, as listed by the source, chain 1 of 2) above
# Target sequence in this assay (VL, as listed by the source, chain 2 of 2): as the sequence (VL, as listed by the source, chain 2 of 2) above
# Description: as §1
Binder,Anti-CD28 Fab signal in the presence of CD28 [1],Anti-CD28 Fab signal [2],Anti-CD28 Fab signal in the presence of CD28 [3],"Anti-CD28 Fab (SEQ ID NOs: 202, 203) signal [4]"
B1,0.06,1.93,–,–
B2,–,–,0.06,0.97
B3,–,–,0.08,1.04
B4,0.08,1.93,–,–
B5,–,–,0.07,0.98
B6,–,–,0.07,0.96
B7,–,–,0.06,0.82
B8,–,–,0.08,0.91
B9,–,–,0.06,0.94
B10,–,–,0.06,0.96
B11,–,–,0.11,0.98
B12,0.18,1.99,–,–
B13,0.06,1.91,–,–
B14,0.06,2.04,–,–
B15,–,–,0.09,1.04
B16,–,–,0.05,0.93
B17,0.08,2.05,–,–
B18,–,–,0.06,0.98
B19,–,–,0.07,1.05
B20,0.1,2,–,–
B21,0.08,1.98,–,–
B22,–,–,0.08,0.94
B23,–,–,0.09,0.96
B24,–,–,0.07,0.43
B25,–,–,0.06,1.04
B26,0.06,2.04,–,–

Binder,Anti-CD28 Fab signal in the presence of CD28 [1],Anti-CD28 Fab signal [2],Anti-CD28 Fab signal in the presence of CD28 [3],"Anti-CD28 Fab (SEQ ID NOs: 202, 203) signal [4]"
B27,0.06,2.04,–,–
B28,0.06,1.91,–,–
B29,–,–,0.1,0.93
B30,–,–,0.06,1.05
B31,0.08,1.93,–,–
B32,–,–,0.09,0.96
B33,–,–,0.09,1.05
B34,–,–,0.06,0.94
B35,0.11,2,–,–
B36,–,–,0.06,1.05
B37,–,–,0.07,0.98
B38,–,–,0.08,0.95
B39,0.06,1.97,–,–
B40,0.07,1.99,–,–
B41,0.09,2,–,–
B42,–,–,0.07,0.93
B43,0.07,1.96,–,–
B44,–,–,0.06,0.95
B45,0.08,1.97,–,–
B46,–,–,0.07,0.97
B47,–,–,0.06,0.43
B48,–,–,0.06,1.05
B49,0.08,2.04,–,–
B50,0.06,1.97,–,–
B51,–,–,0.06,1.04
B52,–,–,0.06,0.93
